# Measurements: patent publication US20190055314A1 (ADAGENE, published 2019)
# Substitutions are numbered along the chain they refer to. Read-outs that look alike come from different tables or passages of the source.
# B1: Fab 4217 (Fab, V domains shown)
# VH: EVQLVESGGGLVQPGGSLRLSCAASGYSISSGYYWDWIRQAPGKGLEWVSSISGDGDTTYYADSVKGRFTISRDNSKNTLYLQLNSLRAEDTAVYYCAREYYGYGYALDYWGQGTLVTVSS
# VL: DIQLTQSPSSLSASVGDRVTITCRASQGISSYLAWYQQKPGKAPKLLIYDASSLESGVPSRFSGSGSGTDFTLTISSLQPEDFATYYCQQYYSTPLTFGQGTKVEIKR
# notes: Fab from E. coli; also called VH10/VL10
# B2: Fab 5404 (Fab, V domains shown)
# VH: EVQLVESGGGLVQPGGSLRLSCAASGYSISSGYHWAWIRQAPGKGLEWIGEIYHSGSTYYSPSLKSRVTISRDNSKNTLYLQLNSLRAEDTAVYYCARSPYYYGVFDYWGQGTLVTVSS
# VL: DIQLTQSPSSLSASVGDRVTITCSASSRVGSVYWYQQKPGKAPKLLIYDASNLETGVPSRFSGSGSGTDFTLTISSLQPEDFATYYCQQYTHDPVTFGQGTKVEIKR
# notes: Fab from E. coli; also called VH34/VL34
# B3: Fab 4072 (Fab, V domains shown)
# VH: EVQLVESGGGLVQPGGSLRLSCAASGFSLSTSGVAVSWIRQAPGKGLEWIGIINPNFGDTNYAQKFQGRVTISRDNSKNTLYLQLNSLRAEDTAVYYCARDEYYGGSYYFDYWGQGTLVTVSS
# VL: DIQLTQSPSSLSASVGDRVTITCRASQDVRTAVAWYQQKPGKAPKLLIYDASNLETGVPSRFSGSGSGTDFTLTISSLQPEDFATYYCQQSYDWPPTFGQGTKVEIKR
# notes: Fab from E. coli; also called VH2/VL2
# B4: Fab 5360 (Fab, V domains shown)
# VH: EVQLVESGGGLVQPGGSLRLSCAASGYSITSGHYWNWIRQAPGKGLEWVSGISGDGSSTYYADSVKGRFTISRDNSKNTLYLQLNSLRAEDTAVYYCARGGSDAVLGDWFAYWGQGTLVTVSS
# VL: DIQLTQSPSSLSASVGDRVTITCRASQSISSYLAWYQQKPGKAPKLLIYDASNLETGVPSRFSGSGSGTDFTLTISSLQPEDFATYYCQQGYSTWTFGQGTKVEIKR
# notes: Fab from E. coli; also called VH28/VL28
# B5: Fab 5408 (Fab, V domains shown)
# VH: B4 VH with H33Y, Y34H, N36S, G51S, D55Y, S57D, S58T, G100E, A104T
# VL: B4 VL with R24Q, S28D, S30R, S31T, T94I
# notes: Fab from E. coli; also called VH36/VL36
# B6: Fab 5348 (Fab, V domains shown)
# VH: EVQLVESGGGLVQPGGSLRLSCAASGFSLSTGGVAVGWIRQAPGKGLEWVSGISGDGGTTYYADSVKGRFTISRDNSKNTLYLQLNSLRAEDTAVYYCTREDYGPHAYWGQGTLVTVSS
# VL: B4 VL with S30T, S31T, A34N, G91S, T94Y, W95S
# notes: Fab from E. coli; also called VH23/VL23
# B7: Fab 5341 (Fab, V domains shown)
# VH: B4 VH with Y34H, N36A, G51A, S58T, G100E, D103T, L106T
# VL: DIQLTQSPSSLSASVGDRVTITCSASSRVGYVHWYQQKPGKAPKLLIYDASSLESGVPSRFSGSGSGTDFTLTISSLQPEDFATYYCQQGYYTWTFGQGTKVEIKR
# notes: Fab from E. coli; also called VH20/VL20
# B8: Fab 4140 (Fab, V domains shown)
# VH: EVQLVESGGGLVQPGGSLRLSCAASGYSISSGYHWNWIRQAPGKGLEWVSSISGSGGSTYYADSVKGRFTISRDNSKNTLYLQLNSLRAEDTAVYYCARDPNYYSSGSYFDYWGQGTLVTVSS
# VL: B4 VL with S28G, S30G, Y32F, A34G, L54R, E55A, V58I, G91S, T94L
# notes: Fab from E. coli; also called VH9/VL9
# B9: Fab 5413 (Fab, V domains shown)
# VH: EVQLVESGGGLVQPGGSLRLSCAASGFSLSTGGVAVGWIRQAPGKGLEWLALIDWDGDKSYSTSLKSRLTISRDNSKNTLYLQLNSLRAEDTAVYYCAREGSTAVVGDWFDYWGQGTLVTVSS
# VL: B4 VL with S28G, S31R, L54R, E55A, V58I, T94L
# notes: Fab from E. coli; also called VH38/VL38
# B10: Fab 5371 (Fab, V domains shown)
# VH: EVQLVESGGGLVQPGGSLRLSCAASGFSLSTSGVGVAWIRQAPGKGLEWVSYISGDGGSTYYADSVKGRFTISRDNSKNTLYLQLNSLRAEDTAVYYCAREGSDVVAGDWFAYWGQGTLVTVSS
# VL: B4 VL with S28D, Y32V, N53S, T56S, S93Q, T94I
# notes: Fab from E. coli; also called VH33/VL33
# B11: Fab 5302 (Fab, V domains shown)
# VH: B10 VH with S32G, Y52S, D56Y, G58S, S59T, V105A, A107L, A112G
# VL: B4 VL with R24Q, S28D, S30T, S31T, L54R, E55A, V58I, S93Y, T94L
# notes: Fab from E. coli; also called VH13/VL13
# B12: Fab 4074 (Fab, V domains shown)
# VH: EVQLVESGGGLVQPGGSLRLSCAASGFSLSTGGVGVSWIRQAPGKGLEWVSSISGSGGTTYYADSVKGRFTISRDNSKNTLYLQLNSLRAEDTAVYYCARDDLYSWYFDVWGQGTLVTVSS
# VL: B4 VL with S28G, S30G, Y32S, D50A, N53S, E55Q, T56S, S93Y
# notes: Fab from E. coli
# B13: Fab 5359 (Fab, V domains shown)
# VH: B9 VH with G32S, A35G, D56A, G57D, S60Y, T63P, E100G, T103D, V106L, D111A
# VL: B4 VL with S28G, S30G, T94I
# notes: Fab from E. coli; also called VH27/VL27
# B14: Fab 5314 (Fab, V domains shown)
# VH: B9 VH with D56A, E100G, T103D, A104T, V106L, D111A
# VL: B4 VL with S28G, I29V, S31P, L54R, E55A, V58I
# notes: Fab from E. coli; also called VH16/VL16
# B15: Fab 5310 (Fab, V domains shown)
# VH: B9 VH with G32S, A35G, G57D, S60Y, T63P, E100G, T103D, A104T, V106L, D111A
# VL: B4 VL with I29V, S31P, N53S, T56S, T94L
# notes: Fab from E. coli; also called VH15/VL15
# B16: Fab 5365 (Fab, V domains shown)
# VH: B9 VH with A35G, D56A, G57D, S60Y, T63P, E100G, T103D, A104T, V106I, D111A
# VL: B4 VL with S30G, S93Y, T94L
# notes: Fab from E. coli; also called VH30/VL30
# B17: Fab 5318 (Fab, V domains shown)
# VH: B9 VH with G32S, G57D, S60Y, V106A, D111A
# VL: B4 VL with R24Q, S28D, S30R, S31T, Y32F, L54R, E55A, V58I
# notes: Fab from E. coli; also called VH18/VL18
# B18: Fab 5370 (Fab, V domains shown)
# VH: B9 VH with G32S, G37A, G57D, S60R, A104T
# VL: B4 VL with S28G, S30G, S31T, L54R, E55A, V58I, T94L
# notes: Fab from E. coli; also called VH32/VL32
# B19: Fab 5303 (Fab, V domains shown)
# VH: B9 VH with G32S, D56A, G57D, S60Y, T63P, T103D, V106L, D111A
# VL: B4 VL with S28D, S31T, Y32F, N53S, T56S, G91A, T94I
# notes: Fab from E. coli; also called VH14/VL14
# B20: Fab 5409 (Fab, V domains shown)
# VH: B4 VH with T30S, Y34H, N36A, G51V, D55S, G100E, A104T
# VL: B4 VL with S28G
# notes: Fab from E. coli; also called VH37/VL37
# B21: Fab 5342 (Fab, V domains shown)
# VH: B9 VH with D56A, S102E, T103D, V106T, D111A
# VL: B4 VL with R24Q, S28D, S30R, S31T, L54R, E55A, V58I, T94I
# notes: Fab from E. coli; also called VH21/VL21
# B22: Fab 4139 (Fab, V domains shown)
# VH: EVQLVESGGGLVQPGGSLRLSCAASGYTFTGYAIHWVRQAPGKGLEWVSAISGDGGSTYYADSVKGRFTISRDNSKNTLYLQLNSLRAEDTAVYYCARGYRGYFDYWGQGTLVTVSS
# VL: DIQLTQSPSSLSASVGDRVTITCRASESVTSTYLAWYQQKPGKAPKLLIYDASNLETGVPSRFSGSGSGTDFTLTISSLQPEDFATYYCQQYSDWPPTFGQGTKVEIKR
# notes: Fab from E. coli; also called VH8/VL8
# Assays:
# [1] = target: T1, CD137-hisFc fusion protein (Sino Biological Cat 10041-H03H) (human, UniProt Q07011 24-186); assay: BLI Octet, Fab
# T1 construct: Bought; also called recombinant human CD137 (fused with human Fc and His tag); not shown: His tag and human Fc
# [2] = target: T1, CD137-hisFc fusion protein (Sino …); assay: BLI Octet, Fab; remark: listed apart in the source
Binder,Kd [1] [nM],koff [1] [s⁻¹],kon [1] [M⁻¹ s⁻¹],Kd [2] [nM],koff [2] [s⁻¹],kon [2] [M⁻¹ s⁻¹]
B1,96.7,0.0545,564000,97,0.055,560000
B2,3.3,0.0013,395000,3.3,0.0013,400000
B3,6.95,0.00107,154000,7,0.0011,150000
B4,24.1,0.00289,120000,24,0.0029,120000
B5,23.6,0.0075,318000,24,0.0075,320000
B6,10.2,0.0133,1.31e+06,,,
B7,29.3,0.00188,64200,,,
B8,< 0.001,< 1e-07,25700,,,
B9,0.993,0.000551,555000,0.99,0.00055,560000
B10,3.97,0.00479,1.21e+06,,,
B11,1.21,0.000426,354000,1.2,0.00043,350000
B12,19.5,0.000937,48000,20,0.00094,48000
B13,0.71,0.00033,464000,0.71,0.00033,460000
B14,8.39,0.00177,210000,8.4,0.0018,210000
B15,5.72,0.00465,813000,5.7,0.0047,810000
B16,2.56,0.00179,701000,2.6,0.0018,700000
B17,19,0.00269,141000,19,0.0027,140000
B18,1.91,0.001,524000,1.9,0.001,520000
B19,5.12,0.00509,995000,5.1,0.0051,1e+06
B20,17,0.00427,251000,17,0.0043,250000
B21,38.9,0.00612,157000,39,0.0061,160000
B22,1.65,8.17e-05,49600,,,
